Source: publication PMC9600270 (Cancers, 2022)

How the values were obtained:
[1] = system: Rh30 cells (cell surface nucleolin); test: Lactoferrin competition of QD-F3 binding, Rh30; format: cell-based; conditions: 2 μM lactoferrin pretreatment 20 min, then 20 nM QD-F3 + 2 μM lactoferrin 1 h on ice, FACS
[2] = system: RD cells (cell surface nucleolin); test: Lactoferrin competition of QD-F3 binding, RD; format: cell-based; conditions: 2 μM lactoferrin pretreatment 20 min, then 20 nM QD-F3 + 2 μM lactoferrin 1 h on ice, FACS

B1: lactoferrin: human milk lactoferrin, high-affinity natural ligand of nucleolin (protein, UniProt P02788 20-710, looked up)
Lactotransferrin: GRRRSVQWCAVSQPEATKCFQWQRNMRKVRGPPVSCIKRDSPIQCIQAIAENRADAVTLDGGFIYEAGLAPYKLRPVAAEVYGTERQPRTHYYAVAVVKKGGSFQLNELQGLKSCHTGLRRTAGWNVPIGTLRPFLNWTGPPEPIEAAVARFFSASCVPGADKGQFPNLCRLCAGTGENKCAFSSQEPYFSYSGAFKCLRDGAGDVAFIRESTVFEDLSDEAERDEYELLCPDNTRKPVDKFKDCHLARVPSHAVVARSVNGKEDAIWNLLRQAQEKFGKDKSPKFQLFGSPSGQKDLLFKDSAIGFSRVPPRIDSGLYLGSGYFTAIQNLRKSEEEVAARRARVVWCAVGEQELRKCNQWSGLSEGSVTCSSASTTEDCIALVLKGEADAMSLDGGYVYTAGKCGLVPVLAENYKSQQSSDPDPNCVDRPVEGYLAVAVVRRSDTSLTWNSVKGKKSCHTAVDRTAGWNIPMGLLFNQTGSCKFDEYFSQSCAPGSDPRSNLCALCIGDEQGENKCVPNSNERYYGYTGAFRCLAENAGDVAFVKDVTVLQNTDGNNNEAWAKDLKLADFALLCLDGKRKPVTEARSCHLAMAPNHAVVSRMDKVERLKQVLLHQQAKFGRNGSDCPDKFCLFQSETKNLLFNDNTECLARLHGKTTYEKYLGPQYVAGITNLKKCSTSPLLEACEFLRK
B1 was tested, and the “QD-F3 binding upon co-incubation with excess lactoferrin” value [1] was “clear decrease” and the “QD-F3 binding upon co-incubation with excess lactoferrin” value [2] was “clear decrease”.
